In series [1] the target is human SDF-1 alpha (CXCL12) (Homo sapiens) (UniProt P48061). Description: SPR. The conditions noted are these: L-RNA, 37 C.
Series [2] deals with biotinylated human D-SDF-1 (mirror-image CXCL12) (Homo sapiens) (UniProt P48061). Kind of series: pulldown. The settings on record: 37 C.
biotinylated human D-SDF-1 (mirror-image CXCL12) (Homo sapiens), sequence (P48061 22-92): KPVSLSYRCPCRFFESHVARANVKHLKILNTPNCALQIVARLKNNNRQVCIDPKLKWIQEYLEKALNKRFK

human SDF-1 alpha (CXCL12) (Homo sapiens), sequence (P48061 22-89): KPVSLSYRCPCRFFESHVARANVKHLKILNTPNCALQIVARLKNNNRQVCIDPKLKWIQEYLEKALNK

Regarding “AGCGUGGCGAGGUUAGGGCUAGAAGUCGGUCGACACGCU [191-D5-001 Spiegelmer]”, in series [1] (FIG. 21 cited here is labelled 191-D5-007), the Kd (usually the constant that tells how readily two partners part at equilibrium) is 0.8 nM.
Consider “AGCGUGGUGUGAUCUAGAUGUAUUGGCUGAUCCUAGUCAGGUACGCU [193-G2-001 Spiegelmer]”, for which the equilibrium dissociation constant (Kd) in series [1] stood at 0.5 nM.
“AGCGUGGUGUGAUCUAGAUGUAUUGGCUGAUCCUAGUCAGGUACGCU [193-G2-001 aptamer (D)]” yielded a Kd in series [2] (better than 192-A10-001 in competition) of 0.3 nM.
“CGGGAGGUUAGGGCUAGAAGUCGGUCCCG [191-D5-007 Spiegelmer]” registered a Kd in series [1] of 0.8 nM.
“CGGGAGGUUAGGGCUAGAAGUCGGUCCCG [191-D5-007 aptamer (D)]” returned a dissociation constant Kd in series [2] (somewhat better than 191-D5-001 in competition) of 2.2 nM.
“GAGAUAGGGGUUAGGGCUUAAAGUCGGCUGAUUCUC [190-A3-004 Spiegelmer]” gave a Kd in series [1] of 4.7 nM.
Consider “GAGAUAGGGGUUAGGGCUUAAAGUCGGCUGAUUCUC [190-A3-004 aptamer (D)]”, for which, in series [2] (same affinity as 190-A3-001), the Kd worked out at 4.6 nM.
For the sequence “GCGUGGUGUGAUCUAGAUGUAUUGGCUGAUCCUAGUCAGGUACGC [193-G2-012 aptamer (D)]”, the Kd in series [2] worked out at 0.3 nM.
Regarding “GCUGUGAAAGCAACAUGUCAAUGAAAGGUAGCCGCAGC [192-A10-001 Spiegelmer]”, in series [1] (1 mM Mg, 1 mM Ca), the Kd worked out at 1 nM.
As for “GCUGUGAAAGCAACAUGUCAAUGAAAGGUAGCCGCAGC [192-A10-001 aptamer (D)]”, in series [2] (1 mM Mg, 1 mM Ca, pH 7.4), the Kd amounted to 1.5 nM.
“GUGCUGCGGGGGUUAGGGCUAGAAGUCGGCCUGCAGCAC [197-B2 Spiegelmer]” gave a Kd in series [1] of 0.9 nM.

The values above are taken from patent US20110112172.
